Reference: patent publication EP3088890B1 (Chugai Seiyaku Kabushiki Kaisha, dated 2020)

B1: GT165 antibody (antibody, IgG1, V domains shown)
VH: QVQLQQSGAELVGPGASVKISCKAFGYTFTNHHINWVKQRPGQGLDWIGYINPYNDYTNYNQKFKGKATLTVDKSSSTAYMELSSLTSEDSAVYYCARSDPAWFAYWGQGTLVTVSA
VL: DIQMTQSPSSLSASLGGKVTITCKASQDINKNIAWYQHKPGKGPRLLIWYTYTLQPGIPSRFSGSGSGRDYSFSISNLEPEDIATYYCLQYDNLPFTFGTGTKLEIKR

Molecular target: T1, GPC3 peptide 1-30 (SEQ ID NO: 1) (human)
T1 construct: Synthetic 30-residue peptide of GPC3
T1 peptide: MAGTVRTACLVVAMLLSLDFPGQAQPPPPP
Assay: peptide ELISA, peptide on plate

Does B1 bind?
Result: no binding (tested: 2 µg/mL)

Molecular target: T2, GPC3 peptide 21-50 (SEQ ID NO: 2) (human)
T2 construct: Synthetic 30-residue peptide of GPC3
T2 peptide: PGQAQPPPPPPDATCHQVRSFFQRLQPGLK
Assay: peptide ELISA, peptide on plate

Does B1 bind?
Result: no binding (tested: 2 µg/mL)

Molecular target: T3, GPC3 peptide 41-70 (SEQ ID NO: 3) (human)
T3 construct: Synthetic 30-residue peptide of GPC3
T3 peptide: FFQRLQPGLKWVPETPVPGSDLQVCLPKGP
Assay: peptide ELISA, peptide on plate

Does B1 bind?
Result: no binding (tested: 2 µg/mL)

Molecular target: T4, GPC3 peptide 61-90 (SEQ ID NO: 4) (human)
T4 construct: Synthetic 30-residue peptide of GPC3
T4 peptide: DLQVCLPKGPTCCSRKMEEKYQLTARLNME
Assay: peptide ELISA, peptide on plate

Does B1 bind?
Result: no binding (tested: 2 µg/mL)

Molecular target: T5, GPC3 peptide 81-110 (SEQ ID NO: 5) (human)
T5 construct: Synthetic 30-residue peptide of GPC3
T5 peptide: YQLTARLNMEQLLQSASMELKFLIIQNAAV
Assay: peptide ELISA, peptide on plate

Does B1 bind?
Result: no binding (tested: 2 µg/mL)

Molecular target: T6, GPC3 peptide 101-130 (SEQ ID NO: 6) (human)
T6 construct: Synthetic 30-residue peptide of GPC3
T6 peptide: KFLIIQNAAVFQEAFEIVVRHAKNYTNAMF
Assay: peptide ELISA, peptide on plate

Does B1 bind?
Result: no binding (tested: 2 µg/mL)

Molecular target: T7, GPC3 peptide 121-150 (SEQ ID NO: 7) (human)
T7 construct: Synthetic 30-residue peptide of GPC3
T7 peptide: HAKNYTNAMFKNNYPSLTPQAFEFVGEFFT
Assay: peptide ELISA, peptide on plate

Does B1 bind?
Result: no binding (tested: 2 µg/mL)

Molecular target: T8, GPC3 peptide 141-170 (SEQ ID NO: 8) (human)
T8 construct: Synthetic 30-residue peptide of GPC3
T8 peptide: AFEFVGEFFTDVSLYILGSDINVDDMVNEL
Assay: peptide ELISA, peptide on plate

Does B1 bind?
Result: no binding (tested: 2 µg/mL)

Molecular target: T9, GPC3 peptide 161-190 (SEQ ID NO: 9) (human)
T9 construct: Synthetic 30-residue peptide of GPC3
T9 peptide: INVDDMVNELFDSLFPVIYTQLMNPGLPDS
Assay: peptide ELISA, peptide on plate

Does B1 bind?
Result: no binding (tested: 2 µg/mL)

Molecular target: T10, GPC3 peptide 181-210 (SEQ ID NO: 10) (human)
T10 construct: Synthetic 30-residue peptide of GPC3
T10 peptide: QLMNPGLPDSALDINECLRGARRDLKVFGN
Assay: peptide ELISA, peptide on plate

Does B1 bind?
Result: no binding (tested: 2 µg/mL)

Molecular target: T11, GPC3 peptide 201-230 (SEQ ID NO: 11) (human)
T11 construct: Synthetic 30-residue peptide of GPC3
T11 peptide: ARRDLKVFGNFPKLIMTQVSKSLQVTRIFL
Assay: peptide ELISA, peptide on plate

Does B1 bind?
Result: no binding (tested: 2 µg/mL)

Molecular target: T12, GPC3 peptide 221-250 (SEQ ID NO: 12) (human)
T12 construct: Synthetic 30-residue peptide of GPC3
T12 peptide: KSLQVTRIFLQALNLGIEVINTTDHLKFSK
Assay: peptide ELISA, peptide on plate

Does B1 bind?
Result: no binding (tested: 2 µg/mL)

Molecular target: T13, GPC3 peptide 241-270 (SEQ ID NO: 13) (human)
T13 construct: Synthetic 30-residue peptide of GPC3
T13 peptide: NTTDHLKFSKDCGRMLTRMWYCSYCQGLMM
Assay: peptide ELISA, peptide on plate

Does B1 bind?
Result: no binding (tested: 2 µg/mL)

Molecular target: T14, GPC3 peptide 261-290 (SEQ ID NO: 14) (human)
T14 construct: Synthetic 30-residue peptide of GPC3
T14 peptide: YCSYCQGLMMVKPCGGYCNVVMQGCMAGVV
Assay: peptide ELISA, peptide on plate

Does B1 bind?
Result: no binding (tested: 2 µg/mL)

Molecular target: T15, GPC3 peptide 281-310 (SEQ ID NO: 15) (human)
T15 construct: Synthetic 30-residue peptide of GPC3
T15 peptide: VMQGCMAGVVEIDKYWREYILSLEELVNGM
Assay: peptide ELISA, peptide on plate

Does B1 bind?
Result: no binding (tested: 2 µg/mL)

Molecular target: T16, GPC3 peptide 301-330 (SEQ ID NO: 16) (human)
T16 construct: Synthetic 30-residue peptide of GPC3
T16 peptide: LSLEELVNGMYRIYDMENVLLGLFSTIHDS
Assay: peptide ELISA, peptide on plate

Does B1 bind?
Result: no binding (tested: 2 µg/mL)

Molecular target: T17, GPC3 peptide 321-350 (SEQ ID NO: 17) (human)
T17 construct: Synthetic 30-residue peptide of GPC3
T17 peptide: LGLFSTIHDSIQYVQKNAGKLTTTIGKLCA
Assay: peptide ELISA, peptide on plate

Does B1 bind?
Result: no binding (tested: 2 µg/mL)

Molecular target: T18, GPC3 peptide 341-370 (SEQ ID NO: 18) (human)
T18 construct: Synthetic 30-residue peptide of GPC3
T18 peptide: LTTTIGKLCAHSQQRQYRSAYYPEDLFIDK
Assay: peptide ELISA, peptide on plate

Does B1 bind?
Result: no binding (tested: 2 µg/mL)

Molecular target: T19, GPC3 peptide 361-390 (SEQ ID NO: 19) (human)
T19 construct: Synthetic 30-residue peptide of GPC3
T19 peptide: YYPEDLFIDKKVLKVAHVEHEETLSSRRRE
Assay: peptide ELISA, peptide on plate

Does B1 bind?
Result: no binding (tested: 2 µg/mL)

Molecular target: T20, GPC3 peptide 381-410 (SEQ ID NO: 20) (human)
T20 construct: Synthetic 30-residue peptide of GPC3
T20 peptide: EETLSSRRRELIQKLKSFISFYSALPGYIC
Assay: peptide ELISA, peptide on plate

Does B1 bind?
Result: no binding (tested: 2 µg/mL)

Molecular target: T21, GPC3 peptide 401-430 (SEQ ID NO: 21) (human)
T21 construct: Synthetic 30-residue peptide of GPC3
T21 peptide: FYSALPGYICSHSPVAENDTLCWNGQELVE
Assay: peptide ELISA, peptide on plate

Does B1 bind?
Result: no binding (tested: 2 µg/mL)

Molecular target: T22, GPC3 peptide 421-450 (SEQ ID NO: 22) (human)
T22 construct: Synthetic 30-residue peptide of GPC3
T22 peptide: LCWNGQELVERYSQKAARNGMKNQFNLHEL
Assay: peptide ELISA, peptide on plate

Does B1 bind?
Result: no binding (tested: 2 µg/mL)

Molecular target: T23, GPC3 peptide 441-470 (SEQ ID NO: 23) (human)
T23 construct: Synthetic 30-residue peptide of GPC3
T23 peptide: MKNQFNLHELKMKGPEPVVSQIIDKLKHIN
Assay: peptide ELISA, peptide on plate

Does B1 bind?
Result: no binding (tested: 2 µg/mL)

Molecular target: T24, GPC3 peptide 461-490 (SEQ ID NO: 24) (human)
T24 construct: Synthetic 30-residue peptide of GPC3
T24 peptide: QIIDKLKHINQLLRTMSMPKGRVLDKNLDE
Assay: peptide ELISA, peptide on plate

Does B1 bind?
Result: no binding (tested: 2 µg/mL)

Molecular target: T25, GPC3 peptide 481-510 (SEQ ID NO: 25) (human)
T25 construct: Synthetic 30-residue peptide of GPC3
T25 peptide: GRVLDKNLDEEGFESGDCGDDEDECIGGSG
Assay: peptide ELISA, peptide on plate

Does B1 bind?
Result: no binding (tested: 2 µg/mL)

Molecular target: T26, GPC3 peptide 501-530 (SEQ ID NO: 26) (human)
T26 construct: Synthetic 30-residue peptide of GPC3
T26 peptide: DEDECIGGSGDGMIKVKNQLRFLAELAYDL
Assay: peptide ELISA, peptide on plate

Does B1 bind?
Result: no binding (tested: 2 µg/mL)

Molecular target: T27, GPC3 peptide 521-550 (SEQ ID NO: 27) (human)
T27 construct: Synthetic 30-residue peptide of GPC3
T27 peptide: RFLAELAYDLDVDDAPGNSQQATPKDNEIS
Assay: peptide ELISA, peptide on plate

Does B1 bind?
Result: no binding (tested: 2 µg/mL)

Molecular target: T28, GPC3 peptide 541-570 (SEQ ID NO: 28) (human)
T28 construct: Synthetic 30-residue peptide of GPC3
T28 peptide: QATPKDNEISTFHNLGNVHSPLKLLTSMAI
Assay: peptide ELISA, peptide on plate

Does B1 bind?
Result: no binding (tested: 2 µg/mL)

Molecular target: T29, GPC3 peptide 551-580 (SEQ ID NO: 29) (human)
T29 construct: Synthetic 30-residue peptide of GPC3
T29 peptide: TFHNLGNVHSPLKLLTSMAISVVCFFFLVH
Assay: peptide ELISA, peptide on plate

Does B1 bind?
Result: no binding (tested: 2 µg/mL)

molecular target: T30, AW3, C-terminally His-tagged recombinant product of positions 1 to 218 of GPC3 (human, UniProt P51654 25-218); assay: Western blot, pellets of CHO cells expressing the product
T30 construct: Expressed in CHO cells, cell pellets used in Western blot; The range is as printed and starts at position 1; not shown: C-terminal His tag
T30 sequence (P51654 25-218): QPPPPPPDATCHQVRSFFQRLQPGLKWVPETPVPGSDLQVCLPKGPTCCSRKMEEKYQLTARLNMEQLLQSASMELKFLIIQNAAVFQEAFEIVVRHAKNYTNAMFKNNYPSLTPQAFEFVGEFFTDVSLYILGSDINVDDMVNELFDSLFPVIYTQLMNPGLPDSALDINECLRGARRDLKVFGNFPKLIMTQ

Does B1 bind?
Result: no binding
